# Test system: MS2 coat protein
# Experiment: apparent KD of MS2 coat protein; designed switch direction (-1 OFF switch, 1 ON switch): -1; higher = weaker reporter binding
# Outline: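 Transcription of designed RNA switches on Illumina chips was done by stalled E. coli RNA polymerase. SNAP-549-labelled MS2 coat protein was then titrated in doubling steps from 0.7 or 1.5 nM to 3 µM, with steps of 0.8–1.5 h at the lowest and 10–20 min at the highest concentration. The per-design median over clusters of curve-fitted normalised fluorescence is reported as apparent KD.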
# [1] = Eterna round: R95, input ligand: microRNA oligo, concentration not stated
# [2] = input ligand: microRNA oligo, concentration not stated
Sequence,apparent KD of MS2 coat protein (input ligand: FMN 200 uM),apparent KD of MS2 coat protein (input ligand: none),apparent KD of MS2 coat protein [1],apparent KD of MS2 coat protein [2]
"UUCAGUCAUCCUUAUUCUUACAUGAGGAUCACCCAUGUUUGUUUAAUUAAGUUUUGUAAGUUUGUUGUUCGUUUUAU [JR_STOV1_v2_Sub073] (Eterna round: R97, puzzle: Sensor, turn-off variant 1)",47.9 nM,50.3 nM,–,–
UUCAUGUGAGGAUAUAGUACUCCUUCUAUUAUUAUUGAGUAUUAGAAGGCACAUGAGGAUCACCCAUGUAGUAC [Ex4 - 3 - 40] (puzzle: Exclusion 4),–,–,24.3 nM,–
"UUCCACGAUGUCAGGAUAUGUAGGGCCGCUGCUAGGCAGAAGGGACAUGAGGAUCACCCAUGUACUGACUACUG [Eternabot (L2) Solution 84] (Eterna round: R97, puzzle: Brourd's mod of Exclusion 4)",78.2 nM,69.6 nM,–,–
"UUCCGCCUAGGAUAUUGGAUACUCUACAUGAGGAUCACCCAUGUGAGCAUGAAAGAUAUCCAAGAAGGAGGUAGCC [Eternabot (L2) Solution 68] (Eterna round: R97, puzzle: Exclusion 5)",16.7 nM,14.6 nM,–,–
"UUCCGGCGUGUAGGAUAUGGUUCCGUUUCGGUUCCAGAAGGACAUGAGGAUCACCCAUGUGCCUGUCGUCGGUCGUCACCGGGC [salish99_ExNG1_r04_219] (Eterna round: R96, puzzle: Exclusion NG 1)",22.3 nM,15.3 nM,–,13.3 nM
"UUCCUACAUGAGGAUCACCCAUGUCAGGAUAUAUAAAACGCUCUGGUAAUAGAGCAAGAUAGAAGGGAUUGGGA [Beeratve] (Eterna round: R97, puzzle: Exclusion 1)",14.6 nM,13.3 nM,–,–
UUCCUACAUGAGGAUCACCCAUGUCAGGAUAUCUCCUCGUCGCCAAUGGGCGACGAAUAGAGAAGGGACAGGAA [Rerizaatra] (puzzle: Exclusion 1),–,–,13.1 nM,–
"UUCCUCAUAACAUGAGGAUCACCCAUGUAUUAUUUGAUAACUGAGGAUAUACUUUUAAUGUUUAUGUAGAAGGCAGAUACAGUU [JR_ExcNG3_Sub016] (Eterna round: R96, puzzle: Exclusion NG 3)",–,–,–,89.6 nM
UUCCUCGUUGUGAGGAUAUCGUCCGGGUUUUGUUACGAGAAGGCACAUGAGGAUCACCCAUGUUACUUGAUGUU [JR_BMOE4_Sub072] (puzzle: Brourd's mod of Exclusion 4),–,–,20 nM,–
UUCCUCGUUGUGAGGAUAUCGUCCGUGUUUUGUUACGAGAAGGCACAUGAGGAUCACCCAUGUUUUUUGUUUUU [JR_BMOE4_Sub075] (puzzle: Brourd's mod of Exclusion 4),–,–,40 nM,–
UUCCUCGUUGUGAGGAUAUCGUCCUCUUUUUGUUACGAGAAGGCACAUGAGGAUCACCCAUGUUUCUUGAUGUU [JR_BMOE4_Sub070] (puzzle: Brourd's mod of Exclusion 4),–,–,16.7 nM,–
UUCCUGUCAGGAUAUGACUAGAUGCACGAAAGUGUGUUUACUUAGAAGGGACAUGAGGAUCACCCAUGUAGUCC [Bring Us a Shrubbery-17] (puzzle: Exclusion 4),–,–,31.3 nM,–
UUCCUGUCAGGAUAUGACUAGAUGCACGAAAGUGUGUUUAGUUAGAAGGGACAUGAGGAUCACCCAUGUAGUCC [Bring Us a Shrubbery-18] (puzzle: Exclusion 4),–,–,20.9 nM,–
"UUCGGCGGAGGAUAUACAGUUUUUUGUUGAAUCGGCGGAAAACAUGAGGAUCACCCAUGUAGAAGGUUGUUGAA [-19.8, -17.1 kcal, A 28%] (Eterna round: R97, puzzle: Exclusion 2)",64.2 nM,65.6 nM,–,–
"UUCGGGUCAGGAUAUUGUUAGUUUAGUUGUUUGUAUUAGUUCGAGAAGGGACAUGAGGAUCACCCAUGUGGUAA [Ex4 #81] (Eterna round: R97, puzzle: Exclusion 4)",71.5 nM,160 nM,–,–
"UUCGUGCAGCUUUGCUGUACGCGUACAUGAGGAUCACCCAUGUAGGAUAUGGUAGGCAAAGCUUACUAGAAGGAUAUAGUGAUC [Mat - Exclusion NG 3 - Mod of JL - D78] (Eterna round: R96, puzzle: Exclusion NG 3)",66.7 nM,64.5 nM,–,41.7 nM
"UUCGUGUGAGGAUAUCGAUUAUGGAAGUCUAGAUCCAUACGCGAGAAGGCACAUGAGGAUCACCCAUGUAAUGG [jl-ex4-4.34 ViennaUCT mod] (Eterna round: R97, puzzle: Exclusion 4)",38 nM,227 nM,–,–
"UUCUGCACGCUGCGGUCCUACAUGAGGAUCACCCAUGUGGUCUGGUGGCGUGGGUCACCGGACUUGGCUCGUCUUGC [salish99_S_TOV1_R5_053] (Eterna round: R97, puzzle: Sensor, turn-off variant 1)",20.1 nM,21.1 nM,–,–
"UUCUGGACAGGAUAUGUACUUGAGCACUUGAGGAUCACCCAAGUCGUCAAGUACUCAGGCACAGAAGGGUUAAUUU [jl-ex5.4.67 ViennaUCT mod] (Eterna round: R97, puzzle: Exclusion 5)",30.7 nM,15.3 nM,–,–
UUCUUACAUGAGGAUCACCCAUGUCAGGAUAUCUCCGCACUGCGCUUGCGCAGUGCAUAGAGAAGGGACAGGCU [JL ViennaUCT Aner mod 4] (puzzle: Exclusion 1),–,–,45.7 nM,–
UUCUUACAUGAGGAUCACCCAUGUCAGGAUAUCUCCUCACUGCGCUUGCGCAGUGAAUAGAGAAGGGACAGGCU [JL ViennaUCT Aner mod 2] (puzzle: Exclusion 1),–,–,37.3 nM,–
UUCUUACGAGGAUAUCGAUUGUGGUACAUGAGGAUCACCCAUGUAUGUGAUAUUGUAUUUCGAGAAGGCGUUCAGU [JR_E5_Sub059] (puzzle: Exclusion 5),–,–,25.2 nM,–
UUCUUGGCAGGAUAUGCUUUUUUAGACAUGAGGAUCACCCAUGUGAUUAUUUUUGGUUUUGCAGAAGGGCCUUAAU [JR_E5_Sub042] (puzzle: Exclusion 5),–,–,59.9 nM,–
"UUCUUUACACGAGGAUAUCAUACAUGAGGAUCACCCAUGUGGCUGUGUCUGUUUUUAUGUAUUAUUGAGAAGGCGUUUUUCUUU [JR_ExcNG2_Sub075] (Eterna round: R96, puzzle: Exclusion NG 2)",105 nM,33 nM,–,28.3 nM
"UUCUUUACACGAGGAUAUCAUACAUGAGGAUCACCCAUGUUACUUUGUCUGUUAUUAUGUAUUAUUGAGAAGGCGUUUUUCUUU [JR_ExcNG2_Sub077] (Eterna round: R96, puzzle: Exclusion NG 2)",–,–,–,15.8 nM
"UUGAAGUCAUCAGGAUAUAGUAUAAAAGACAUAUAUUUUUUCAAACAUGAGGAUCACCCAUGUCGCUAGAAGGGAUUAUAGAUU [JR_ExcNG2_Sub081] (Eterna round: R96, puzzle: Exclusion NG 2)",–,–,–,34.7 nM
"UUGAAGUCGUCAGGAUAUAGUUUUAAUGUCAUGCGUAUGUUCUUACAUGAGGAUCACCCAUGUCGCUAGAAGGGACUAUAGAUU [JR_ExcNG2_Sub009] (Eterna round: R96, puzzle: Exclusion NG 2)",53.3 nM,51.6 nM,–,36.4 nM
"UUGACGGCAGGAUAUACAUGAGGAUCACCCAUGUAAAUUUUUCGUUUAACUUGAAUGUGUAGAAGGGCCAUGUU [Ex3 #72] (Eterna round: R97, puzzle: Exclusion 3)",18.2 nM,19 nM,–,–
